Substrate: CC(CN)CNCCCCNCC(C)CN
Experiment: Substrate activity at recombinant human SMOX assessed as Km at 2000 to 6000 uM
Format: ADME

B1: Spermine oxidase (Homo sapiens) (protein)
chain: MQSCESSGDSADDPLSRGLRRRGQPRVVVIGAGLAGLAAAKALLEQGFTDVTVLEASSHIGGRVQSVKLGHATFELGATWIHGSHGNPIYHLAEANGLLEETTDGERSVGRISLYSKNGVACYLTNHGRRIPKDVVEEFSDLYNEVYNLTQEFFRHDKPVNAESQNSVGVFTREEVRNRIRNDPDDPEATKRLKLAMIQQYLKVESCESSSHSMDEVSLSAFGEWTEIPGAHHIIPSGFMRVVELLAEGIPAHVIQLGKPVRCIHWDQASARPRGPEIEPRGEGDHNHDTGEGGQGGEEPRGGRWDEDEQWSVVVECEDCELIPADHVIVTVSLGVLKRQYTSFFRPGLPTEKVAAIHRLGIGTTDKIFLEFEEPFWGPECNSLQFVWEDEAESHTLTYPPELWYRKICGFDVLYPPERYGHVLSGWICGEEALVMEKCDDEAVAEICTEMLRQFTGNPNIPKPRRILRSAWGSNPYFRGSYSYTQVGSSGADVEKLAKPLPYTESSKTAPMQVLFSGEATHRKYYSTTHGALLSGQREAARLIEMYRDLFQQGT
Km: 121 µM | Vmax: 0.124 µmol/min/mg

— ChEMBL document CHEMBL4321859, “Unforeseen Possibilities To Investigate the Regulation of Polyamine Metabolism Revealed by Novel C-Methylated Spermine Derivatives” (J Med Chem, 2019)
